Paper PMC13379273 (Advanced Science, 2026)

Target: the molecule itself
Test: SEC; […] (20 mM HEPES, 150 mM NaCl pH 7.2), room temperature; […]

B1: Hendra virus W protein (W^HeV), wild type (natural protein)
chain: MDKLDLVNDGLDIIDFIQKNQKEIQKTYGRSSIQQPSTKDRTRAWEDFLQSTSGEHEQAEGGMPKNDGGTEGRNVEDLSSVTSSDGTIGQRVSNTRAWAEDPDDIQLDPMVTDVVYHDHGGECTGHGPSSSPERGWSYHMSGTHDGNVRAVPDTKVLPNAPKTTVPEEVREIDLIGLEDKFASAGLNPAAVPFVPKNQSTPTEEPPVIPEYYYGSGRRGDLSKSPPRGNVNLDSIKIYTSDDEDENQLEYEDEFAKSSSEVVIDTTPEDNDSINQEEVVGDPSDQGLEHPFPLGKFPEKEETPDVRRKDSLMQDSCKRGGVPKRLPMLSEEFECSGSDDPIIQELEREGSHPGGSLRLREPPQSSGNSRNQPDRQLKTGDAASPGGVQRPGTPMPKSRIMPIKKGAQTRSLNMLGRKTCLGRRVVQPGMFADYPPTKKARVLLRRMSN
**Q.** Does B1 bind?
**A.** Result: binds
